The series deals with the molecule itself. The series can be described thus: SEC-MALS. A general note: SEC sorts molecules by how far they enter the pores of the column.

The source of these data is paper doi:10.1101/2022.05.16.492059 (bioRxiv, 2022).

B1: PGL-3 (1-452) (domain or fragment, C. elegans, UniProt G5EBV6 1-452, looked up)
chain: MEANKRQIVEVDGIKSYFFPHLAHYLASNDELLVNNIAQANKLAAFVLGATDKRPSNEEIAEMILPNDSSAYVLAAGMDVCLILGDDFRPKFDSGAEKLSQLGQAHDLAPIIDDEKKISMLARKTKLKKSNDAKILQVLLKVLGAEEAEEKFVELSELSSALDLDFDVYVLAKLLGFASEELQEEIEIIRDNVTDAFEACKPLLKKLMIEGPKIDSVDPFTQLLLTPQEESIEKAVSHIVARFEEASAVEDDESLVLKSQLGYQLIFLVVRSLADGKRDASRTIQSLMPSSVRAEVFPGLQRSVFKSAVFLASHIIQVFLGSMKSFEDWAFVGLAEDLESTWRRRAIAELLKKFRISVLEQCFSQPIPLLPQSELNNETVIENVNNALQFALWITEFYGSESEKKSLNQLQFLSPKSKNLLVDSFKKFAQGLDSKDHVNRIIESLEKSSSSE
A word on the stoichiometry N: it is the number of molecules, sites or subunits per partner or assembly. With B1, the “stoichiometry N” value worked out at 2.
